Experimental data published in patent US9206246B2, “Heparin/heparan sulfate-dependent inhibitors of activated protein C and uses thereof in treating hemophilic disorders” (Academia Sinica, priority 2012, dated 2015).

How the values were obtained:
[1] = molecular target: T1, human activated protein C (Homo sapiens, UniProt P04070); assay: Inhibition of APC amidolytic activity (Spectrozyme PCa chromogenic substrate); type: biochemical; conditions: for enhancement of APC inhibition by heparan sulfate chain: 10 μg/ml, APC and DrKIn-I 20 nM each; for Hill slope of dose-response curve / IC50: APC 10 nM
T1 construct: purchased Haematologic Technologies
Description: B: Dose-response curves of APC (10 nM) inhibition by DrKIn-I in the absence (◯) and presence (●) of 0.1 U/ml heparin. C: To determine the minimum concentration of heparin required for the potentiation APC inhibition, the activity of APC (20 nM) was measured after the addition of DrKIn-I (20 nM) and varying concentrations of heparin (0-1000 mU/ml). D: To assess the ability of heparan sulfate and the minimum length of heparan sulfate required to potentiate DrKIn-I-mediated APC inhibition, the amidolytic activity of APC was determined in the presence of DrKIn-I (20 nM) and different lengths of heparan sulfate chains (10 μg/ml each). E, Time course of FVa inactivation by APC (1 nM) was assessed in the absence (●) or presence (▪) of 5 nM DrKIn-I, or in the presence of 5 nM DrKIn-I supplemented with 0.1 U/ml heparin (▴), as described in “Materials and methods”. F, The effect of DrKIn-I (0-250 nM) and/or heparin (0.1 U/ml) on APC-mediated FVa inactivation was determined after 10 minutes of incubation at 37° C. with APC (5 nM). Results shown are means±SD of three experiments.
All inhibition assays were performed in 96-wells microtiter plates in 25 mM Tris-HCl (pH 7.4), 150 mM NaCl, 2.5 mM CaCl2 and 5 mg/ml BSA. For comparison between DrKIn-I and DrKIn-II, the amidolytic activity of 10 nM APC, with or without 0.1 U/ml heparin, was assayed in the presence or absence of equal molar concentrations of DrKIn-I or DrKIn-II. Immediately after the addition of APC, Spectrozyme PCa was added and the rates of p-nitroaniline release were monitored at 405 nm for 10 minutes at 37° C. For dose response curves, APC was mixed with different concentrations of DrKIn-I in the presence or absence of heparin. The final concentrations were as follows: APC (10 nM), heparin (0.1 U/ml) and DrKIn-I (0-100 nM in the presence of heparin and 0-12800 nM in the absence of heparin). Dose-response curves were fitted using GraphPad Prism (GraphPad Software). In other inhibition experiments, varying concentrations of heparin ([…]) or different lengths of heparan sulfate chains (10 μg/ml) were added to equimolar concentrations of APC and DrKIn-I (20 nM each). In all the inhibition experiments, Spectrozyme PCa was added to a final concentration of 0.2 mM. Changes in absorbance were measured using SpectraMax M2^e Microplate Reader (Molecular Devices).

protein C zymogen (PC) = protein C zymogen (PC) (Homo sapiens, UniProt P04070); assay: Surface plasmon resonance, immobilized protein C zymogen; type: binding; conditions: DrKIn-I 31.25, 62.5, 125 nM
Description: A: 70 μg of DrKIn-I in 0.1 ml equilibrating buffer (20 mM Tris-HCl, pH 8.0) was applied to a 5 ml HiTrap Heparin column and eluted with a 50 ml gradient from 0.0-1.0 M NaCl. The salt concentration corresponding to the elution peak was determined to be 0.95 M. B, Binding of DrKIn-I (0.78, 1.56, 2.34, 3.13, 4.68 and 6.25 nM) to immobilized APC was assessed in buffer containing 10 mM HEPES, 0.15 M NaCl, 3 mM EDTA and 0.05% P20 at a flow rate of 60 μl/min at 25° C. […] The thin lines represent the global fit to the response data. […] Results shown are means±SD of three experiments. Representative binding traces are shown.
Biacore T200 (GE Healthcare) was used for analysis. APC or PC dissolved in 10 mM acetate buffer (pH 5.0) was immobilized on a CM5 sensor chip to a response unit (RU) of 1000 with an amine coupling kit. Associations and dissociations of DrKIn-I were performed in 10 mM HEPES (N-2-hydroxyethylpiperazine-N′-2-ethanesulfonic acid; pH 7.4), 150 mM NaCl, 3 mM EDTA (ethylenediaminetetraacetic acid) and 0.05% P20 with a flow rate of 60 μl/min. The sensor surface was regenerated with 90 μl of 2 M MgCl2 and the signals obtained were subtracted by that obtained from the reference channel that had not been coated with ligands. Binding kinetics were determined by global fitting to 1:1 Langmuir binding model using the Biaevaluation software (GE Healthcare).

FXIa = molecular target: T2, FXIa (Homo sapiens, UniProt P03951); assay: Selectivity profile and Ki, amidolytic activity of FXIa; type: biochemical
T2 construct: factor XIa (FXIa); purchased Haematologic Technologies
T2 sequence (P03951 388-625 limits assumed): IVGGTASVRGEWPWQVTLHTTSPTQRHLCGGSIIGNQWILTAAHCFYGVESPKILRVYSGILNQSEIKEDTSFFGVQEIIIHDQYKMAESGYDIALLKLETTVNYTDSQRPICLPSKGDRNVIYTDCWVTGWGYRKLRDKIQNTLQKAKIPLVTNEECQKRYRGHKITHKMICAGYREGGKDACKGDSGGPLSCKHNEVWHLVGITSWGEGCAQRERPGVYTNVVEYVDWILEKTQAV
T2 sequence (P03951 19-387 limits assumed): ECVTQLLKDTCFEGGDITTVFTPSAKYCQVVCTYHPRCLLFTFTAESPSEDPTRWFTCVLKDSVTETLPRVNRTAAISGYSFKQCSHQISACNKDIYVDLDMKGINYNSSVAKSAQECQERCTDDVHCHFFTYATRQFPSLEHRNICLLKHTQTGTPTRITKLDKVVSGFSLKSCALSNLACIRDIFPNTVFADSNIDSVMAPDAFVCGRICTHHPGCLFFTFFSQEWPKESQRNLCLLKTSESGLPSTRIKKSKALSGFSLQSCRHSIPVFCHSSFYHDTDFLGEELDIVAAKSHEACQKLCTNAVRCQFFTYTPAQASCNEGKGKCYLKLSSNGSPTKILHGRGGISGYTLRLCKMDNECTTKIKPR
Description: In each of these experiments, the molar ratio of protease active site to inhibitor was 1:1. The final concentrations of these proteases and their respective substrates were as follows: FXIIa (20 nM)/S-2302 (0.2 mM), FXIa (2.5 nM)/S-2366 (0.2 mM), FXa (10 nM)/S-2222 (1.3 mM), FIXa (200 nM)/Spectrozyme FIXa (1.3 mM), FVIIa (100 nM)/S-2288 (1.3 mM), thrombin (5 nM)/T-1637 (0.2 mM), kallikrein (5 nM)/S-2302 (0.2 mM), plasmin (20 nM)/S-2251 (0.2 mM), tPA (80 nM)/Spectrozyme tPA (0.2 mM), uPA (100 nM)/S-2288 (1.3 mM), APC (10 nM)/Spectrozyme PCa (0.2 mM) and trypsin (5 nM)/S-2222 (0.2 mM). Results shown are means±SD of at least three experiments.
DrKIn-I, with or without heparin, was screened for its inhibitory activity against trypsin and also against serine proteases in the coagulation cascade (FXIIa, FXIa, FXa, FIXa, FVIIa, thrombin and kallikrein) and in the fibrinolytic system (plasmin, tPA and uPA). The amidolytic activities of these proteases were determined in the presence or absence of equimolar concentrations of DrKIn-I using their respective chromogenic substrates.

[2] = in the presence of 0.1 U/ml heparin

## DrKIn-I (CGGNDNNFETRKKCRQTCGAPRKGRPT)
[1]; 10 nM inhibitor, 10 nM APC, no heparin
  inhibitory activity against APC in the absence of heparin: little inhibitory activity against APC
[1]; 0.01 U/ml heparin, APC 20 nM, DrKIn-I 20 nM
  potentiation of APC inhibition by heparin: more than 70%
[1]; 0.1 U/ml heparin, APC 20 nM, DrKIn-I 20 nM
  APC activity: no APC activity was detectable
[1]; equimolar inhibitor and APC (10 nM each), 0.1 U/ml heparin, Spectrozyme PCa 0.2 mM
  decrease of APC activity (inhibition of APC amidolytic activity): 100%
[1]; heparan sulfate of 2 disaccharide units
  enhancement of APC inhibition by heparan sulfate chain: ~25%
[1]; heparan sulfate of one disaccharide unit
  enhancement of APC inhibition by heparan sulfate chain: ~10%
[1]; in the absence of heparin
  Hill slope of dose-response curve: −0.85±0.02
  IC50: 88.9 ± 1 nM
[1]; [2]
  Hill slope of dose-response curve: −3.64±0.30
  IC50: 3.5 ± 0.2 nM
[1]; with vs without heparin
  reduction of IC50 by heparin: 25 fold
Protein C zymogen (PC)
  binding to immobilized protein C zymogen: No binding was observed
FXIa; equimolar DrKIn-I and enzyme active site, FXIa 2.5 nM
  inhibition of FXIa: ~40%
FXIa; in the presence of heparin, read-out: Ki for FXIa inhibition
  Ki: 1.33 ± 0.08 nM
